Test results published in patent US20250268980A1, “AN ANTICANCER THERAPY TARGETING RAS AND OTHER ONCOGENIC SIGNALS BY INHIBITION OF DYNAMIC BLEBBING AND/OR SEPTINS” (THE BOARD OF REGENTS OF THE UNIVERSITY OF TEXAS SYSTEM, priority 2022, published 2025).

Assays:
SEPTIN11 (human) [1] = target: SEPTIN11 (human) (UniProt Q9NVA2); experiment: HaloLink pulldown from MV3 cells, LC-MS/MS
SEPTIN9 (human) [2] = target: SEPTIN9 (human) (UniProt Q9UHD8); experiment: HaloLink pulldown from MV3 cells, LC-MS/MS
SEPTIN6 (human) [3] = target: SEPTIN6 (human) (UniProt Q14141); experiment: HaloLink pulldown from MV3 cells, LC-MS/MS
SEPTIN2 (human) [4] = target: SEPTIN2 (human) (UniProt Q15019); experiment: HaloLink pulldown from MV3 cells, LC-MS/MS
SEPTIN8 (human) [5] = target: SEPTIN8 (human) (UniProt Q92599); experiment: HaloLink pulldown from MV3 cells, LC-MS/MS
SEPTIN10 (human) [6] = target: SEPTIN10 (human) (UniProt Q9P0V9); experiment: HaloLink pulldown from MV3 cells, LC-MS/MS
SEPTIN7 (human) [7] = target: SEPTIN7 (human) (UniProt Q16181); experiment: HaloLink pulldown from MV3 cells, LC-MS/MS
SEPTIN11 (human) [8] = target: SEPTIN11 (human) (UniProt Q9NVA2); experiment: HaloLink pulldown from unperturbed A375 cells, LC-MS/MS
SEPTIN9 (human) [9] = target: SEPTIN9 (human) (UniProt Q9UHD8); experiment: as above
SEPTIN6 (human) [10] = target: SEPTIN6 (human) (UniProt Q14141); experiment: as above
SEPTIN2 (human) [11] = target: SEPTIN2 (human) (UniProt Q15019); experiment: as above
SEPTIN8 (human) [12] = target: SEPTIN8 (human) (UniProt Q92599); experiment: as above
SEPTIN10 (human) [13] = target: SEPTIN10 (human) (UniProt Q9P0V9); experiment: as above
SEPTIN7 (human) [14] = target: SEPTIN7 (human) (UniProt Q16181); experiment: as above

Sequence of SEPTIN6 (human) (Q14141 2-434 limits assumed): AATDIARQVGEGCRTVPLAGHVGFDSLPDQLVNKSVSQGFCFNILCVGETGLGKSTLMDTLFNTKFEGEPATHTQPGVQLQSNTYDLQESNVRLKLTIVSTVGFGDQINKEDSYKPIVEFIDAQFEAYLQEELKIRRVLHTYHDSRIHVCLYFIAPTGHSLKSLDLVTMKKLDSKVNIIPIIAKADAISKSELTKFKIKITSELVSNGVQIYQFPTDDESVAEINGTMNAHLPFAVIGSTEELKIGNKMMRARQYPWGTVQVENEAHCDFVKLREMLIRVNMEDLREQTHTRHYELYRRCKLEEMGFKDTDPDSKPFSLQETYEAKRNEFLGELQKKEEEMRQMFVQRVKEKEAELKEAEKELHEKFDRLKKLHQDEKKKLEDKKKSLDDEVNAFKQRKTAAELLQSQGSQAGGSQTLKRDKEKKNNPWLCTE
Sequence of SEPTIN11 (human) (Q9NVA2 2-429 limits assumed): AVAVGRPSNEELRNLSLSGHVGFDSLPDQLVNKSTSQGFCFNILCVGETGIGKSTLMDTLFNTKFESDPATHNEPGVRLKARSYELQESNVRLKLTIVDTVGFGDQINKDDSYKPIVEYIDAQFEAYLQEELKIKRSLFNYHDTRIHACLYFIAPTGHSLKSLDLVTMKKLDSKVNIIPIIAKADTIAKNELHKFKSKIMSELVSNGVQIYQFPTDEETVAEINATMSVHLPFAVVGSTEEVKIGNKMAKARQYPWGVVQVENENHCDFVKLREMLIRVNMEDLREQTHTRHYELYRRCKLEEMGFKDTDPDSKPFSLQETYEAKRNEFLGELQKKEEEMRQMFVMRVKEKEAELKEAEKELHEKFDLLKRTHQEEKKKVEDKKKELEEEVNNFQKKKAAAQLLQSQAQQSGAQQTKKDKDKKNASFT
Sequence of SEPTIN2 (human) (Q15019 whole entry): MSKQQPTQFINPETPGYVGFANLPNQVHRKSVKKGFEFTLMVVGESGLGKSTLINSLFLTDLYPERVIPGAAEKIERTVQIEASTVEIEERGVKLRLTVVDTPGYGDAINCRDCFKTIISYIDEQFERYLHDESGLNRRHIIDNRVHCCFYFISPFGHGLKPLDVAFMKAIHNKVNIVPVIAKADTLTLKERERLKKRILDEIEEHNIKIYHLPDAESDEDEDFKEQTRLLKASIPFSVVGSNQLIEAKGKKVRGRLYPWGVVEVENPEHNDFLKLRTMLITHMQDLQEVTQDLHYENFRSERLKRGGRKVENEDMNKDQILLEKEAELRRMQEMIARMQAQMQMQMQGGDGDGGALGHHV
Sequence of SEPTIN8 (human) (Q92599 2-483 limits assumed): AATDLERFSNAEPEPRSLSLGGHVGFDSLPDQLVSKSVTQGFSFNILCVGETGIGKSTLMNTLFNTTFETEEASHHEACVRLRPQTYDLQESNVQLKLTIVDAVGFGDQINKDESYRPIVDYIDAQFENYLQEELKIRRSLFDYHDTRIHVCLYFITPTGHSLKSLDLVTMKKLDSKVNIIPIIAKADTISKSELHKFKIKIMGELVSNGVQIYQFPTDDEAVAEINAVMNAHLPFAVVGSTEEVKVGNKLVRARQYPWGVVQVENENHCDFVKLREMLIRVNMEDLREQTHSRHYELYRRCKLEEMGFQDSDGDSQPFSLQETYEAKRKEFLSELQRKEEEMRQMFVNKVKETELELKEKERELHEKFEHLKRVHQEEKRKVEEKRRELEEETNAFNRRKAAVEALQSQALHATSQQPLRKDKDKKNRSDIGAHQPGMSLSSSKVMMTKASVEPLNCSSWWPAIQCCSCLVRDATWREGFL
Sequence of SEPTIN9 (human) (Q9UHD8 whole entry): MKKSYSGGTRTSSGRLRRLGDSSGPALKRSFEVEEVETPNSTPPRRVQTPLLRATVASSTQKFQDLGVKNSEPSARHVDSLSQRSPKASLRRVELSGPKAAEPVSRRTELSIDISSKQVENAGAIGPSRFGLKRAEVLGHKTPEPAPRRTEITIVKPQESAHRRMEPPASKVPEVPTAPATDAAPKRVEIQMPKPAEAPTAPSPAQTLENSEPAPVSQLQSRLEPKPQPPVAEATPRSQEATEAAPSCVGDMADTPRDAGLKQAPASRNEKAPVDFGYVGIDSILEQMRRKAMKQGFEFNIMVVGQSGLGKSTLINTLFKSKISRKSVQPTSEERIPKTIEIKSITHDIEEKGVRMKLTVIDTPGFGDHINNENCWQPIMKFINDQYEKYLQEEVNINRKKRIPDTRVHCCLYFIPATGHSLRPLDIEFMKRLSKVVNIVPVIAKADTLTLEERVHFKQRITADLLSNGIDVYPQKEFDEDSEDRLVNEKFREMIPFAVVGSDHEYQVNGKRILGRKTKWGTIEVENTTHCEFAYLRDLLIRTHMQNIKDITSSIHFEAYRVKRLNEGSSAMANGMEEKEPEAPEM
Sequence of SEPTIN10 (human) (Q9P0V9 whole entry): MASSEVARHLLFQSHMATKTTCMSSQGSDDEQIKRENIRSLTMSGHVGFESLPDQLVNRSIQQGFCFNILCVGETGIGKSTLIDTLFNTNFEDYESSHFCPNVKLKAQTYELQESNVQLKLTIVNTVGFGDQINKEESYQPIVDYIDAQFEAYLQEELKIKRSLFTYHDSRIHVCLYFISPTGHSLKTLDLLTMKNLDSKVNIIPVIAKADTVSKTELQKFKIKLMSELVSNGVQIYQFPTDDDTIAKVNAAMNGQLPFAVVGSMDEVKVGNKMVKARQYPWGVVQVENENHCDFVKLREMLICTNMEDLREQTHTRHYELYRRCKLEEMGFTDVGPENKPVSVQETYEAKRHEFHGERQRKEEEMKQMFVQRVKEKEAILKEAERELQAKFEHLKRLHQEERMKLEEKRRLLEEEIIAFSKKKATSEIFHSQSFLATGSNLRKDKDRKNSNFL
Sequence of SEPTIN7 (human) (Q16181 2-437 limits assumed): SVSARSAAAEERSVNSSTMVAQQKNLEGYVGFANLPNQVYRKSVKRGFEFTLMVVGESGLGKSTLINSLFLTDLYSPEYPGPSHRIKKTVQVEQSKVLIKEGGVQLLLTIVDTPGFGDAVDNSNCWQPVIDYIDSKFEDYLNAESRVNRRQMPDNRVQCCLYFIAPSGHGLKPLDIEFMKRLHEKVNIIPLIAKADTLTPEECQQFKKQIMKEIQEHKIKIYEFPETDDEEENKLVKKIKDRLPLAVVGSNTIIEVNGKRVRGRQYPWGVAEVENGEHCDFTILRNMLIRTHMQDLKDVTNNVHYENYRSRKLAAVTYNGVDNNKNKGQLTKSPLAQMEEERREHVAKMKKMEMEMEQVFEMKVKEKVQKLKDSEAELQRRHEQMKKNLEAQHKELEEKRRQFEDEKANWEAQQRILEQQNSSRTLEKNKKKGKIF

mouse SEPT6-HALO (from UniProt Q9R1T4 2-434)
% of total protein abundance (SEPTIN11 (human) [1]): 0.08%
% of total septin abundance (SEPTIN11 (human) [1]): 0.94%
% of total protein abundance (SEPTIN9 (human) [2]): 1.85%
% of total septin abundance (SEPTIN9 (human) [2]): 23%
fold change between lysate and pulldown (% of total protein abundance) (SEPTIN9 (human) [2]): 61.7 fold
fold change between lysate and pulldown (% of total septin abundance) (SEPTIN9 (human) [2]): 1.78 fold
% of total protein abundance (SEPTIN6 (human) [3]): 1.03%
% of total septin abundance (SEPTIN6 (human) [3]): 12.8%
fold change between lysate and pulldown (% of total protein abundance) (SEPTIN6 (human) [3]): 11.4 fold
fold change between lysate and pulldown (% of total septin abundance) (SEPTIN6 (human) [3]): -3.2 fold
% of total protein abundance (SEPTIN2 (human) [4]): 2.43%
% of total septin abundance (SEPTIN2 (human) [4]): 30.1%
fold change between lysate and pulldown (% of total protein abundance) (SEPTIN2 (human) [4]): 60.8 fold
fold change between lysate and pulldown (% of total septin abundance) (SEPTIN2 (human) [4]): 1.5 fold
% of total protein abundance (SEPTIN8 (human) [5]): < 0.01%
% of total septin abundance (SEPTIN8 (human) [5]): 0.09%
fold change between lysate and pulldown (% of total septin abundance) (SEPTIN8 (human) [5]): -3.44 fold
% of total protein abundance (SEPTIN10 (human) [6]): 0.28%
% of total septin abundance (SEPTIN10 (human) [6]): 3.19%
fold change between lysate and pulldown (% of total protein abundance) (SEPTIN10 (human) [6]): 7 fold
fold change between lysate and pulldown (% of total septin abundance) (SEPTIN10 (human) [6]): -5.32 fold
% of total protein abundance (SEPTIN7 (human) [7]): 2.41%
% of total septin abundance (SEPTIN7 (human) [7]): 29.9%
fold change between lysate and pulldown (% of total protein abundance) (SEPTIN7 (human) [7]): 120 fold
fold change between lysate and pulldown (% of total septin abundance) (SEPTIN7 (human) [7]): 3.39 fold
% of total protein abundance (SEPTIN11 (human) [8]): < 0.01%
% of total septin abundance (SEPTIN11 (human) [8]): 0.12%
fold change between lysate and pulldown (% of total septin abundance) (SEPTIN11 (human) [8]): -44.7 fold
% of total protein abundance (SEPTIN9 (human) [9]): 1.55%
% of total septin abundance (SEPTIN9 (human) [9]): 22.1%
fold change between lysate and pulldown (% of total protein abundance) (SEPTIN9 (human) [9]): 77.5 fold
fold change between lysate and pulldown (% of total septin abundance) (SEPTIN9 (human) [9]): 1.62 fold
% of total protein abundance (SEPTIN6 (human) [10]): 1.67%
% of total septin abundance (SEPTIN6 (human) [10]): 23.8%
fold change between lysate and pulldown (% of total protein abundance) (SEPTIN6 (human) [10]): 55.7 fold
fold change between lysate and pulldown (% of total septin abundance) (SEPTIN6 (human) [10]): -1.33 fold
% of total protein abundance (SEPTIN2 (human) [11]): 1.81%
% of total septin abundance (SEPTIN2 (human) [11]): 25.7%
fold change between lysate and pulldown (% of total protein abundance) (SEPTIN2 (human) [11]): 60.3 fold
fold change between lysate and pulldown (% of total septin abundance) (SEPTIN2 (human) [11]): -1.03 fold
% of total protein abundance (SEPTIN8 (human) [12]): < 0.01%
% of total septin abundance (SEPTIN8 (human) [12]): 0.02%
% of total protein abundance (SEPTIN10 (human) [13]): 0.51%
% of total septin abundance (SEPTIN10 (human) [13]): 7.23%
fold change between lysate and pulldown (% of total septin abundance) (SEPTIN10 (human) [13]): 3.77 fold
% of total protein abundance (SEPTIN7 (human) [14]): 1.48%
% of total septin abundance (SEPTIN7 (human) [14]): 21.1%
fold change between lysate and pulldown (% of total protein abundance) (SEPTIN7 (human) [14]): 74 fold
fold change between lysate and pulldown (% of total septin abundance) (SEPTIN7 (human) [14]): 1.35 fold
